Substitutions are numbered along the chain they refer to.

Four molecules from US20090081219A1 (Genmab, published 2009) can be followed below.

Test [1] addresses T1, recombinant human CD25 (rhCD25), NS/0-expressed recombinant protein from R&D Systems (cat#223-2A/CF) (human, UniProt P01589 22-213, limits assumed).
T1 construct: Coated on ELISA plates, and amine-coupled to a CM-5 chip for SPR; also called hrCD25; soluble CD25
T1 sequence (looked up): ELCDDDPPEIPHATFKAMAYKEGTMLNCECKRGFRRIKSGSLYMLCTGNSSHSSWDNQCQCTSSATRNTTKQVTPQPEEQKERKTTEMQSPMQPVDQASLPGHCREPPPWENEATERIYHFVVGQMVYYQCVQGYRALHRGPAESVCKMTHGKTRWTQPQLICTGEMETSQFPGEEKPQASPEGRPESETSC
In words: competition ELISA on coated rhCD25 (100 ng/ml); antibody supernatant added 10 min before rIL-2-biotin (50 ng/ml); streptavidin-poly-HRP/ABTS, OD405; blocked ligand: biotinylated IL-2. The method, then:
After washing (3×) the plates with PBST, 100 μl of sample antibody (concentration range: 10, 33, and 100 ng/ml) was added. […] After washing the plates 3× (in PBST), plates were incubated with streptavidin-poly-HRP (dilute 1:10,000 from stock) in PBS, and 100 μl was added to each well (1 hour, RT). After washing the plates (3× in PBST), 10 mg ABTS (Roche) per 10 ml ABTS buffer (Roche) was made and 100 μl added to each well.
(In general: In an ELISA, binding on a coated surface is turned into a signal by an enzyme label.)

The target of test [2] is T1, recombinant human CD25 (rhCD25), …. Kind of test: SPR, BIAcore 3000, 25 C; rhCD25 amine-coupled to CM-5 chip at low density, antibody as analyte, 1:1 Langmuir model. (SPR reads the build-up and loss of mass on a sensor chip optically.)
Description: Affinity analyses were assessed by monitoring changes in surface plasmon resonance using a BIAcore 3000 instrument. A BIAcore 3000 and BIAcore 3000 software control (BIAcore, Uppsala, Sweden, lot#BR-1100-43) was used. […] After blocking the residual binding sites of the activated sensor chip using ethanol-amine-HCl, a kinetic analysis was performed at 25° C. […] The results were visualized using a BIAcore 3000 (Bio-tek Instruments) and analyzed using the BIAevaluation Software 3.1 (BIAcore, Uppsala, Sweden) and Languir binding 1:1 was used as pre-fixed model.

B1: human monoclonal antibody AB1 (antibody, human IgG1, V domains shown)
VH: QVQLVQSGAEVKKPGSSVKVSCKASGGTFSRYPINWVRQAPGQGLEWMGRIIPILGIADYAQRFQGRVTITADKSTNTAYMELSSLRSEDTAVYYCARRDWGDYWGQGTLVTVSS
VL: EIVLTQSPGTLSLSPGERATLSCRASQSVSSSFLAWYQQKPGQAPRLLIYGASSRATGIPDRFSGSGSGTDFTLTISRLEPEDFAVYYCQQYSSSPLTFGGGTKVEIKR
notes: Human IgG1,kappa from a hybridoma (HuMAb mouse)
For the molecule B1, the binding result in test [1] was “binds”.

B2: human monoclonal antibody AB12 (antibody, V domains shown)
VH: B1 VH with P33I, I57V, A58E, D59N, R63K, N77S, R99K, G102F
VL: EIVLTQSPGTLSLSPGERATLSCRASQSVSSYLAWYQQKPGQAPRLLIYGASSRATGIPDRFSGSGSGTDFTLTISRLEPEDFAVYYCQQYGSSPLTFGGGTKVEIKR
notes: Human IgG1,kappa from a hybridoma (HuMAb mouse); also called AB12-FITC; FITC-labeled AB12
Take B2: the Kd in test [2] stood at 0.0474 nM.

B3: human monoclonal antibody AB7 (antibody, V domains shown)
VH: B1 VH with P33A, G56D, R63K, G66D, R99K, G102F, Y104P
VL: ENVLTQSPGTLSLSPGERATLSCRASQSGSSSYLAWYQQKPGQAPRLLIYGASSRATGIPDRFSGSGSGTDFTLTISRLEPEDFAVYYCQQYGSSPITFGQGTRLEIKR
notes: as for B1
B3: in test [1], the binding result is listed as “binds”.

B4: human monoclonal antibody AB11 (antibody, human IgG1, V domains shown)
VH: B1 VH with S75F
VL: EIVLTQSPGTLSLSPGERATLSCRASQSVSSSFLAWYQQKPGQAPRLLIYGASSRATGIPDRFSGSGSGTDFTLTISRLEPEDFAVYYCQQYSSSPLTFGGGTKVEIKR
notes: as for B1
For the molecule B4, the binding result in test [1] is on record as “binds”.

What is called Kd is the constant that tells how readily two partners part at equilibrium.
